From US20250171542A1

Target: human PD-L1 expressed on cell surface (human) (UniProt Q9NZQ7)
Assay: cell-based or functional assay

human PD-L1 expressed on cell surface (human), sequence (Q9NZQ7 19-290 limits assumed): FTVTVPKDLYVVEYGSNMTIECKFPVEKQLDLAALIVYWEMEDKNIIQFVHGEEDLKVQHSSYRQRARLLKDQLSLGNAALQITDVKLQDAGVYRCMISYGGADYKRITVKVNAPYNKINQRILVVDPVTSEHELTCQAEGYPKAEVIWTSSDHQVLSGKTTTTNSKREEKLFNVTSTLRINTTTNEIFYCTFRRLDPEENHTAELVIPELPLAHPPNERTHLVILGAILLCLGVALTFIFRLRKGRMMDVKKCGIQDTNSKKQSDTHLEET

IC50 (nM), Promega PD-1/PD-L1 blockade reporter assay, another assay	Substance
0.68 nM	SGN-PD-L1 analogue anti-PD-L1 antibody (BioIntron)
0.33 nM	Atezolizumab analogue (BioIntron) (antibody)
